# In US20130005646A1 (Novo Nordisk, published 2013):
# Starred links: 1 amine or outer side, 2 acyl side, 3 side chain; linkers in the order of their positions; H or OH if unused. Positions of bridges follow the written chain, without caps; N, C: chain ends. Groups on a side chain read outwards from the residue. No end group written: not given here. *: point of attachment. C20 diacid = O=C(O)CCCCCCCCCCCCCCCCCCC(=O)*; 19‑carboxyheptadecanoyl = not defined here; γGlu = O=C(O)[C@H](CCC(=O)[*:2])N[*:1]; AEEA = NCCOCCOCC(=O)O
# T1: human amylin 3(a) receptor (human calcitonin receptor + RAMP-3) (human, UniProt P30988 25-474; O60896 24-148)
# T1 sequence (looked up) 1: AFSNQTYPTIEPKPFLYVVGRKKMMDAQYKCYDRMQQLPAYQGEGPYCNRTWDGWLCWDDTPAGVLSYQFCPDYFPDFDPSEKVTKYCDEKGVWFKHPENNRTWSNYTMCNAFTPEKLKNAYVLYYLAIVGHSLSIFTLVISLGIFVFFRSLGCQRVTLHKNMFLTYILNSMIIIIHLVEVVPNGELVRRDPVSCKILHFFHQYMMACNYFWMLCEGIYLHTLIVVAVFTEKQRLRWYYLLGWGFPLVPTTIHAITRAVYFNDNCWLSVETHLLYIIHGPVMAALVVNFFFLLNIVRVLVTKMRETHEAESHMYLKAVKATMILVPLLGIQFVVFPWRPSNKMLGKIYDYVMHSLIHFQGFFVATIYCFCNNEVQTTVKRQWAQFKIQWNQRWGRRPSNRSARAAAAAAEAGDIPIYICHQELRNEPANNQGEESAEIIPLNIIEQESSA
# T1 sequence (looked up) 2: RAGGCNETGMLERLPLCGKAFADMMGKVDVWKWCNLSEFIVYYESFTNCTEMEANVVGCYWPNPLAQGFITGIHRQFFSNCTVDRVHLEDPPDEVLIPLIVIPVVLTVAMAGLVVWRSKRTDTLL
# T2: human calcitonin (a) receptor (human, UniProt P30988 25-474)
# T2 sequence (looked up): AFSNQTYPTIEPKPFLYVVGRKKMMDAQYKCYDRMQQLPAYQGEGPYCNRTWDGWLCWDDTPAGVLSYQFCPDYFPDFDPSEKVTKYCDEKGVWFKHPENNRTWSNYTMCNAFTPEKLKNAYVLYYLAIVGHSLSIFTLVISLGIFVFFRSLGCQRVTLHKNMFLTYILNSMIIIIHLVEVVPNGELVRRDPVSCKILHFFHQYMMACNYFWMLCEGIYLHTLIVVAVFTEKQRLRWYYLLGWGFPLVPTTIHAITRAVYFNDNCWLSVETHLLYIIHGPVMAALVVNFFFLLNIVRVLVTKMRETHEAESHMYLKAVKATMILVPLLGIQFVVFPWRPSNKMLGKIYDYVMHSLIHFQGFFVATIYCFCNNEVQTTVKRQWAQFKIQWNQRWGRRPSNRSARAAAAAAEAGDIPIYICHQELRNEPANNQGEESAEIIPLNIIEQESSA
# T3: rat calcitonin (a) receptor (rat, UniProt P32214 25-516)
# T3 sequence (looked up): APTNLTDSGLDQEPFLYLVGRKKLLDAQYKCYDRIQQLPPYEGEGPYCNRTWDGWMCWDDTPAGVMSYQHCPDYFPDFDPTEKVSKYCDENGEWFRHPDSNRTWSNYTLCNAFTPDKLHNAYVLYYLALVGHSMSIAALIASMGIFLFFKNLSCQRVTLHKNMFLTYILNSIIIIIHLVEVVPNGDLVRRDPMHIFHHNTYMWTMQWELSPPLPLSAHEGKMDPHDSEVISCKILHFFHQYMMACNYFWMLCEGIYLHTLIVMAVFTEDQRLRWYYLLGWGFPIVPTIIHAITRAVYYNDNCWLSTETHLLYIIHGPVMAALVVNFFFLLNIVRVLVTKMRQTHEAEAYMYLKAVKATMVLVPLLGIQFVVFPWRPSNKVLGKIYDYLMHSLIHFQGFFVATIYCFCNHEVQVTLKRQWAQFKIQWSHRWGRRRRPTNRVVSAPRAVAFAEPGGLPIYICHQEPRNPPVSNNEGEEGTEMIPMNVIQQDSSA
# T4: rat amylin 3(a) receptor (rat calcitonin(a) receptor + rat RAMP3) (rat, UniProt P32214 25-516; Q9JJ73 23-147)
# T4 sequence (looked up) 1: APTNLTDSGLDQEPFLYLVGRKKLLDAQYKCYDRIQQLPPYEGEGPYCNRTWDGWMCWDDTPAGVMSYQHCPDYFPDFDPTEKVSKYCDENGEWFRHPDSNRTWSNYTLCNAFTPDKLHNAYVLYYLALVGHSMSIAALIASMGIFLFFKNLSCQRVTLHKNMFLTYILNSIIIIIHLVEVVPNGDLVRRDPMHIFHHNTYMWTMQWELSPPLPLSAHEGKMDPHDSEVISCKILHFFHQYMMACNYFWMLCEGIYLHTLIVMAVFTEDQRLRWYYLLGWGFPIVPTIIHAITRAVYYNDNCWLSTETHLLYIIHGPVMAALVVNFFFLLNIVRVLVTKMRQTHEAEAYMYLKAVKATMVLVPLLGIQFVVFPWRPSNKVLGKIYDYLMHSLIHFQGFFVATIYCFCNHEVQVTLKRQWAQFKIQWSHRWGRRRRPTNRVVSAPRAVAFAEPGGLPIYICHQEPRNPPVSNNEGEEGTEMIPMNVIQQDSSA
# T4 sequence (looked up) 2: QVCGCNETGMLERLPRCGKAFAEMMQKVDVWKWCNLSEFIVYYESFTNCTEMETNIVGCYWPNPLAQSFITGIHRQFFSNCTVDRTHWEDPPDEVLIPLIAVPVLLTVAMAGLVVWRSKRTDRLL
# B1: N-alpha-[(S)-4-Carboxy-4-(19-carboxynonadecanoylamino)butyryl]-Glu-[Arg1,Glu14,His17]-pramlintide (peptide)
# peptide: {C20 diacid-γGlu}-ERCNTATCATQRLAEFLHHSSNNFGPILPPTNVGSNTY-NH2
# modifications: disulfide 3-8
# SMILES: CC[C@H](C)[C@H](NC(=O)[C@@H]1CCCN1C(=O)CNC(=O)[C@H](Cc1ccccc1)NC(=O)[C@H](CC(N)=O)NC(=O)[C@H](CC(N)=O)NC(=O)[C@H](CO)NC(=O)[C@H](CO)NC(=O)[C@H](Cc1c[nH]cn1)NC(=O)[C@H](Cc1c[nH]cn1)NC(=O)[C@H](CC(C)C)NC(=O)[C@H](Cc1ccccc1)NC(=O)[C@H](CCC(=O)O)NC(=O)[C@H](C)NC(=O)[C@H](CC(C)C)NC(=O)[C@H](CCCNC(=N)N)NC(=O)[C@H](CCC(N)=O)NC(=O)[C@@H](NC(=O)[C@H](C)NC(=O)[C@@H]1CSSC[C@H](NC(=O)[C@H](CCCNC(=N)N)NC(=O)[C@H](CCC(=O)O)NC(=O)CC[C@H](NC(=O)CCCCCCCCCCCCCCCCCCC(=O)O)C(=O)O)C(=O)N[C@@H](CC(N)=O)C(=O)N[C@@H]([C@@H](C)O)C(=O)N[C@@H](C)C(=O)N[C@@H]([C@@H](C)O)C(=O)N1)[C@@H](C)O)C(=O)N[C@@H](CC(C)C)C(=O)N1CCC[C@H]1C(=O)N1CCC[C@H]1C(=O)N[C@H](C(=O)N[C@@H](CC(N)=O)C(=O)N[C@H](C(=O)NCC(=O)N[C@@H](CO)C(=O)N[C@@H](CC(N)=O)C(=O)N[C@H](C(=O)N[C@@H](Cc1ccc(O)cc1)C(N)=O)[C@@H](C)O)C(C)C)[C@@H](C)O
# B2: N-alpha-[2-(2-{2-[2-(2-{2-[(S)-4-Carboxy-4-(19-carboxyheptadecanoylamino)butyrylamino]ethoxy}ethoxy)acetylamino]ethoxy}ethoxy)acetyl]-[His1,Glu14,His17,Arg18,Al … (peptide)
# peptide: {19‑carboxyheptadecanoyl-γGlu-AEEA-AEEA}-HCNTATCATQRLAEFLHRATQELGPILPPTNVGSNTY-NH2
# modifications: disulfide 2-7; reading uncertain; also: printed as N-alpha-[2-(2-{2-[2-(2-{2-[(S)-4-Carboxy-4-(19-carboxyheptadecanoylamino)butyrylamino]ethoxy}ethoxy)acetylamino]ethoxy}ethoxy)acetyl]-[His1,Glu14,His17,Arg18,Ala19,Thr20,Gln21,Glu22,Leu23]-pramlintide
# B3: N-alpha-[(S)-4-Carboxy-4-(19-carboxynonadecanoylamino)butyryl]-Glu-[Glu14,His17]-pramlintide (peptide)
# peptide: {C20 diacid-γGlu}-EKCNTATCATQRLAEFLHHSSNNFGPILPPTNVGSNTY-NH2
# modifications: disulfide 3-8; not fully specified; printed as N-alpha-[(S)-4-Carboxy-4-(19-carboxynonadecanoylamino)butyryl]-Glu-[Glu14,His17]-pramlintide
# What was measured:
# Assay in all cases: cell-based or functional assay
# [1] = molecular target: T1, human amylin 3(a) receptor (human …)
# [2] = molecular target: T2, human calcitonin (a) receptor
# [3] = molecular target: T3, rat calcitonin (a) receptor
# [4] = molecular target: T4, rat amylin 3(a) receptor (rat …)
binder,measurement,setting,value
RCNTATCATQRLAEFLHRSSK([AEEA-AEEA-γGlu-19‑carboxyheptadecanoyl])NFGPILPPTNVGSNTY-NH2 (disulfide 2-7),Amylin receptor human EC50,[1],0.0994 nM
same,CTa receptor human EC50,[2],0.469 nM
B1,Amylin receptor human EC50,[1],0.119 nM
same,CTa receptor human EC50,[2],0.184 nM
B2,Amylin receptor human EC50,[1],0.385 nM
same,CTa receptor human EC50,[2],0.492 nM
B3,Amylin receptor human EC50,[1],0.13 nM
same,CTa receptor human EC50,[2],0.214 nM
same,CTa receptor rat EC50,[3],1.39 nM
same,Amylin receptor rat EC50,[4],0.476 nM
